Results: article PMC11629678, “Hypoxia favors tumor growth in colorectal cancer in an integrin αDβ1/hemoglobin δ-dependent manner” (Life Science Alliance, 2024)

Biological target: the molecule itself
Experiment: SDS-polyacrylamide gel electrophoresis and blot; recombinant His-tagged Hbδ and Hbβ (HbAo) on a 4-20% SDS gel and blotted; non-reducing conditions in the legend, reducing conditions in the text

B1: recombinant Hbδ (natural protein)
chain: not shown
notes: hemoglobin subunit delta, recombinant, His-tagged (Origene); No catalogue number is printed; also called His-tagged recombinant Hbδ; source: bought: Origene
  binding result: binds
